Paper PMC6426841, “Reversible histone glycation is associated with disease-related changes in chromatin architecture” (Nature Communications, 2019)
Ends that are not written are not given here.

Biological target: T1, recombinant His6-tagged wild-type DJ-1 (UniProt Q99497 1-189)
T1 construct: DJ-1 (PARK7), wild type, expressed from the plasmid pET3a-His-DJ1; No removal of the His6 tag is described; The plasmid pET3a-His-DJ1 (Addgene 51488) tells the exact construct; also called PARK7; recombinant DJ-1; source: E. coli Rosetta (DE3), purified (Ni2+-NTA agarose, desalting)
T1 sequence (looked up): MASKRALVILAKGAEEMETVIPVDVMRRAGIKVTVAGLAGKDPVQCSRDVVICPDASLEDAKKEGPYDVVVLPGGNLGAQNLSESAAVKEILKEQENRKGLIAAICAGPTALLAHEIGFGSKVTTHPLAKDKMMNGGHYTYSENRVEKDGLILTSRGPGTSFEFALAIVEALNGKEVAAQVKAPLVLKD
Test: pull-down; biotinylated H3 (1-18) peptide, glycated or not, incubated with recombinant DJ-1 at 4 °C for 2 h; peptide pulled down on BSA-blocked streptavidin magnetic beads, washed 3 times with 1x PBS pH 7.4, boiled; western blot with anti-DJ-1
Conditions: both partners purified

- binding result: binds
B1: glycated (MGO-treated) biotinylated H3 N-terminal tail peptide (residues 1-18) (peptide, UniProt Q71DI3 2-19, looked up)
peptide: ARTKQTARKSTGGKAPRK
modifications: not fully specified (N-terminus, C-terminus); also: MGO glycation adducts, sites not given here
notes: histone H3 N-terminal tail, residues 1-18; The methods speak of 'N-terminal biotinylated H3 peptides', the results of a C-terminal biotin; also called glycated H3 tail; glycated biotin-H3 tail; source: synthetic peptide (Fmoc-SPPS, RP-HPLC purified), treated with MGO at 1:3 peptide:MGO, 37 °C, 30 min; not shown: biotin, C-terminal, kept
